Here are results for four molecules from patent US20260258083A1 (Amgen, published 2026).

Where no end group is shown, it is not given here. Side-chain parts run from the residue outwards. [ ]: non-standard residue; d: D form. pGlu = O=C1CC[C@@H](C(=O)O)N1

The target of experiment [1] is T1, FLT3xCD3 TCE SEQ ID NO 93.
T1 construct: Single-chain scFv-scFv-scFc T cell engager; also called FLT3×CD3ε TCE; FLT3_7 A8xCD3-scFc Bispecific HLE molecule
The experiment in a line: KinExA equilibrium in solution, KD relative to peptide concentration, TCE 125 pM.

In experiment [2] the target is T1, FLT3xCD3 TCE SEQ ID NO 93. The experiment in a line: KinExA equilibrium in solution, KD relative to peptide concentration, TCE 250 pM; alias in this row reads 20 k Linear Thioether.
Experiment [3] concerns the target T1, FLT3xCD3 TCE SEQ ID NO 93. Briefly: KinExA equilibrium in solution, KD relative to peptide concentration, TCE 250 pM. A general note: A kinetic exclusion assay measures how much of one partner remains free in solution.
For experiment [4], the target named is T2, Steap 1xCD3 TCE SEQ ID NO 373 + 374 + 375.
T2 construct: also called STEAP1×CD3e heterodimeric TCE; Ab-A1 Xmab2+1
Briefly: KinExA equilibrium in solution, KD relative to peptide concentration, TCE 333 pM. The procedure:
1. […] 2. […] 3. […] 4. Added 80 mM PDEA to activate the resin for thiol exchange, 10 mins, r.t. […] 5. […] 6. […] 7. […] 8.

The next experiment deals with T3, scFv region of I2C.
T3 construct: also called VH-VL of I2C
Briefly: co-crystal structure used as input for the modelling.

B1: 73135-2 (peptide)
peptide: [pGlu]DGNEELKGK-OH
modifications: also: Lys 10 side chain linked via thioether (acetamide) to 4-arm 20 kDa PEG
notes: TCE masking molecule
What is called Kd is the free concentration of one partner at which half of the binding sites on the other are occupied at equilibrium, for simple one-to-one binding. As to B1, the Kd stood at 0.0122 nM in experiment [1] and 0.153 nM in experiment [2].

B2: 73136-2 (peptide)
peptide: [pGlu]DGNEELKGK([acetamide‑thioether-mPEG 20 kDa])-OH
modifications: also: Lys 10 side chain linked via thioether (acetamide) to linear 20 kDa mPEG
notes: TCE masking molecule
In experiment [3], B2 came in with a Kd of 0.173 nM.

B3: pEDGNEELKGC-NH2 (peptide)
peptide: [pGlu]DGNEELKGC-NH2
SMILES: CC(C)C[C@H](NC(=O)[C@H](CCC(=O)O)NC(=O)[C@H](CCC(=O)O)NC(=O)[C@H](CC(N)=O)NC(=O)CNC(=O)[C@H](CC(=O)O)NC(=O)[C@@H]1CCC(=O)N1)C(=O)N[C@@H](CCCCN)C(=O)NCC(=O)N[C@@H](CS)C(N)=O
notes: Unconjugated peptide (Conjugate column: N/A)
In the case of B3, the Kd in experiment [4] stood at 1.59 nM.

B4: pE-DGNEELK (peptide)
peptide: [pGlu]DGNEELK
notes: Position 1 is written E for pE; also called CD3ε peptide
In the case of B4, in the experiment with scFv region of I2C, the binding result is given as “binds”.
